Data: publication PMC4753449, “Conformational plasticity of RepB, the replication initiator protein of promiscuous streptococcal plasmid pMV158” (Scientific Reports, 2016)

B1: RepB OD (oligomerisation domain, residues 127 to 210) (domain or fragment, UniProt P13921 127-210, looked up)
chain: DIDRYVTLDVEEKTELFNVVVSLIRAYTLQNIFDLYDFIDENGETYGLTINLVNEVIAGKTGFMKLLFDGAYQRSKRGTKNEER
notes: RepB of plasmid pMV158 (Streptococcus agalactiae), oligomerisation domain, residues 127 to 210; theoretical mass of the hexamer 58,300 Da; also called OD-only construct; OD hexamer; source: Escherichia coli M15, purified (Ni-NTA agarose), His-tag removed with TAGZyme; not shown: His6, N-terminal, cleaved
B2: RepB, rolling-circle replication initiator protein of plasmid pMV158 (hexamer) (natural protein, UniProt P13921 1-210, looked up)
chain: MAKEKARYFTFLLYPESIPSDWELKLETLGVPMAISPLHDKDKSSIKGQKYKKAHYHVLYIAKNPVTADSVRKKIKLLLGEKSLAMVQVVLNVENMYLYLTHESKDAIAKKKHVYDKADIKLINNFDIDRYVTLDVEEKTELFNVVVSLIRAYTLQNIFDLYDFIDENGETYGLTINLVNEVIAGKTGFMKLLFDGAYQRSKRGTKNEER
notes: RepB, replication initiator protein encoded by the promiscuous plasmid pMV158, originally isolated from Streptococcus agalactiae; 24 kDa polypeptide; OBD (N-terminal) and OD (C-terminal) domains; the OD construct ends at residue 210; The final model of 4U87 comprises residues 3-204 of three protomers in the asymmetric unit; also called RepB6; RepB hexamer

Experiments:
[1] = biological target: the molecule itself; experiment: AUC; sedimentation equilibrium, 20 °C, 20 mM NaH2PO4 pH 7.0, 150 mM NaCl; OBD 10-60 μM at 22,000 rpm, OD 10-100 μM at 13,000 rpm; single-species model
[2] = biological target: the molecule itself; experiment: SAXS; free RepB in solution at 20, 40 and 83 μM RepB6 (12.1, 5.8 and 2.9 mg/mL); 10 mM TRIS pH 8.5, 5 mM EDTA, 1.0 M KCl

| Protein | stoichiometry N [1] | stoichiometry N [2] |
| --- | --- | --- |
| B1 | 6 | – |
| B2 | – | 6 |
